In assay [1] the target is fibronectin (Homo sapiens) (UniProt P02751). As to conditions: cited from earlier work.
The target of assay [2] is hTIGIT-ECD-Fc (human TIGIT extracellular domain with C-terminal Fc tag, Acro Biosystems #TIT-H5254) (human) (UniProt Q495A1). The experiment in a line: SPR; Biacore 3000; hTIGIT-ECD-Fc immobilised on CM5 chip (3220 RU); Fap2-ECD injected at 52.5 to 368 nM; 25 mM HEPES-NaOH pH 7.5, 50 mM NaCl, 0.005% Tween-20; 25 °C; global 1:1 Langmuir fit. Background: SPR reads the build-up and loss of mass on a sensor chip optically.

Another assay deals with TIGIT (Homo sapiens) (UniProt Q495A1). To be noted: cited from earlier work.
Assay [3] deals with T1, Fap2 extracellular domain (Fap2-ECD), residues 42-3271, purified after release from the AIDA autotransporter (Fusobacterium nucleatum subsp. …, UniProt A0ABV3Y820 42-3271).
T1 construct: Linker GSA before and SAG after the His8 tag; what is left of the TEV site after cleavage follows it; Gene codon-optimised for E. coli; also called Fap2 WT; recombinant Fap2-ECD; not shown: His8, C-terminal, kept
The experiment in a line: SPR; Biacore 3000; hTIGIT-ECD-Fc amine-coupled to a CM5 chip (3220 RU); Fap2-ECD injected at 52.5-368 nM; 25 mM HEPES-NaOH pH 7.5, 50 mM NaCl, 0.005% Tween-20; 25 °C; 1:1 Langmuir global fit. As to conditions: both partners purified.

Chain of fibronectin (Homo sapiens) (P02751 32-2477): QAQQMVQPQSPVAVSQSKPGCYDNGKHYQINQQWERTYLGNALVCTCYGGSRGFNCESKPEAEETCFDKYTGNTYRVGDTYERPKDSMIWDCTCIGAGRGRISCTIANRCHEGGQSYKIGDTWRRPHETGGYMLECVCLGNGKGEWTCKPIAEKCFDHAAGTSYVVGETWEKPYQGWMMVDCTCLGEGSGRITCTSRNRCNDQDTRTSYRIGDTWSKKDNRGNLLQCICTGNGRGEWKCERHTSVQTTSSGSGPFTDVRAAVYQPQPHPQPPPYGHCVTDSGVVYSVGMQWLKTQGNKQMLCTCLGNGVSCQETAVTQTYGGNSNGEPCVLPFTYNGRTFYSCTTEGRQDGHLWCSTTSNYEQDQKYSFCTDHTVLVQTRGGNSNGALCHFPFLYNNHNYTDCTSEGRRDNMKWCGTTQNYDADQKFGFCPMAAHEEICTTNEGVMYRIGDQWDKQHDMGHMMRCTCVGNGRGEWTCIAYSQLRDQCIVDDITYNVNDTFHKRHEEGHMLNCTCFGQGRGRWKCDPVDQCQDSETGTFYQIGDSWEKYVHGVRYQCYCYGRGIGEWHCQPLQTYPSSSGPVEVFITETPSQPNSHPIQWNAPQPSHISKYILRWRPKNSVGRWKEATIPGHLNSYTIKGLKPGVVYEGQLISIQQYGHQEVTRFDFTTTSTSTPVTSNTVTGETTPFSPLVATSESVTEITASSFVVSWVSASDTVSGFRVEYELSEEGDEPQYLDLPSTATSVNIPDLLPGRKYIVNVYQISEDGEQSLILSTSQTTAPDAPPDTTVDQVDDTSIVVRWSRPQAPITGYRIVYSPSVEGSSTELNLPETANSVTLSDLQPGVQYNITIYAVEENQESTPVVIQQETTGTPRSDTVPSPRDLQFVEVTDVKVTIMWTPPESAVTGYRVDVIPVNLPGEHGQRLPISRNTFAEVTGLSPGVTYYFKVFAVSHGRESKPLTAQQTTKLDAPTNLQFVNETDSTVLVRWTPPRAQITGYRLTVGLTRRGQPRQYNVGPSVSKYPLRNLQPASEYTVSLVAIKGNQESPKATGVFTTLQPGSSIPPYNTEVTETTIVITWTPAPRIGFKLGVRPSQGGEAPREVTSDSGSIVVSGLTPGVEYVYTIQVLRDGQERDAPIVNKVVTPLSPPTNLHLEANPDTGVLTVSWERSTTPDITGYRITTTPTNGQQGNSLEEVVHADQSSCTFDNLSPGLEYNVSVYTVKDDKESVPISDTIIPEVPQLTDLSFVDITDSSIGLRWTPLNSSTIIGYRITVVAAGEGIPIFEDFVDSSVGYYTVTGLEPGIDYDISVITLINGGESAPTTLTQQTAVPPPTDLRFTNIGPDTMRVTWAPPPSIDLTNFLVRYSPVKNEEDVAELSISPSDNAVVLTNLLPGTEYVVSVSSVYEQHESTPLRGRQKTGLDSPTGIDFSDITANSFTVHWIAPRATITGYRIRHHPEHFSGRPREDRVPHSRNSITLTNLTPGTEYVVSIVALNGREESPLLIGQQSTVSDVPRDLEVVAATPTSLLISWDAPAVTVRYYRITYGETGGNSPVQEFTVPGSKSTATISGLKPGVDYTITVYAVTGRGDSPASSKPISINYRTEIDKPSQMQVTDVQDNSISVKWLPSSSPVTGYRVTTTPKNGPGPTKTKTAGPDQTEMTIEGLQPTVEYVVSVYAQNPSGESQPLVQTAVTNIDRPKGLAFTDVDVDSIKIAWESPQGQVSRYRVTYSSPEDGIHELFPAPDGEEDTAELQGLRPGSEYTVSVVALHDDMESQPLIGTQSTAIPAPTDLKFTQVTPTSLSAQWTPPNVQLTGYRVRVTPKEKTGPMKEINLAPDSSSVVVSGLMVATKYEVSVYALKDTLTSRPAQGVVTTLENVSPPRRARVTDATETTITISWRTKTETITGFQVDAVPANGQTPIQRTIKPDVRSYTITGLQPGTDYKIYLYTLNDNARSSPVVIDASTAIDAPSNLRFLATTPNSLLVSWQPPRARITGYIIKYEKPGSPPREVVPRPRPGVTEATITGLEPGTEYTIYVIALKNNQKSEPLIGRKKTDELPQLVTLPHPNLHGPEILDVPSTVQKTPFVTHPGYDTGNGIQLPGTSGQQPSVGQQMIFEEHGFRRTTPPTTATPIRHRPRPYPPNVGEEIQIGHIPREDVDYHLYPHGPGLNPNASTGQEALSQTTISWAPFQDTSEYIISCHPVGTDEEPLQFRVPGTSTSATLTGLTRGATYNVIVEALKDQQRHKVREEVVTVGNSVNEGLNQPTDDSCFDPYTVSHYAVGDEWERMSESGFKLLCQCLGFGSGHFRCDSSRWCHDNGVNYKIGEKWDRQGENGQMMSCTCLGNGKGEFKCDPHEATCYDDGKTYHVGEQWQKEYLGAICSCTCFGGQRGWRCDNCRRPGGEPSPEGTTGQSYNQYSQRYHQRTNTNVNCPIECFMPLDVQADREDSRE

In the case of lipoprotein P4 (from UniProt P26093), the Kd (commonly the concentration at which binding is half-saturated) in assay [1] is 10 nM.

Take “Fap2 extracellular domain (Fap2-ECD, residues 42-3271) from Fusobacterium nucleatum subsp. nucleatum ATCC23726, wild type (domain or fragment)”: in assay [2], the Ka turned out to be 1.72e+06 M⁻¹, the Kd worked out at 583 nM and the koff (usually the first-order rate constant of dissociation) came to 0.0308 s⁻¹.

On to Nectin-2 (from UniProt Q92692), for which, in the assay with TIGIT (Homo sapiens), the Kd is 6000 nM.

B1: human TIGIT extracellular domain with C-terminal Fc tag (Acro Biosystems #TIT-H5254) (Fc fusion, UniProt Q495A1 22-141, looked up)
chain: MMTGTIETTGNISAEKGGSIILQCHLSSTTAQVTQVNWEQQDQLLAICNADLGWHISPSFKDRVAPGPGLGLTLQSLTVNDTGEYFCIYHTYPDGTYTGRIFLEVLESSVAEHGARFQIP
notes: TIGIT, human, extracellular domain; The text calls it glycosylated hTIGIT-ECD in the SPR; also called hTIGIT-ECD-Fc; hTIGIT-Fc; source: bought: Acro Biosystems, #TIT-H5254; not shown: Fc, C-terminal, kept
In the case of B1, in assay [3], the Kd is roughly 600 nM and the koff came out at 0.03 ± 0.001 s⁻¹.

Source of the values: publication PMC12397386, “Structural basis of Fusobacterium nucleatum adhesin Fap2 interaction with receptors on cancer and immune cells” (Nature Communications, 2025).
